Biological target: T1, GST-tagged human HSF1 (human, UniProt Q00613 1-529)
T1 construct: Heat shock factor 1 (HSF1), human (hHSF1); The authors surmise that GST dimers induce HSF1 oligomerisation; also called GST-HSF1; GST-hHSF1
T1 sequence (looked up): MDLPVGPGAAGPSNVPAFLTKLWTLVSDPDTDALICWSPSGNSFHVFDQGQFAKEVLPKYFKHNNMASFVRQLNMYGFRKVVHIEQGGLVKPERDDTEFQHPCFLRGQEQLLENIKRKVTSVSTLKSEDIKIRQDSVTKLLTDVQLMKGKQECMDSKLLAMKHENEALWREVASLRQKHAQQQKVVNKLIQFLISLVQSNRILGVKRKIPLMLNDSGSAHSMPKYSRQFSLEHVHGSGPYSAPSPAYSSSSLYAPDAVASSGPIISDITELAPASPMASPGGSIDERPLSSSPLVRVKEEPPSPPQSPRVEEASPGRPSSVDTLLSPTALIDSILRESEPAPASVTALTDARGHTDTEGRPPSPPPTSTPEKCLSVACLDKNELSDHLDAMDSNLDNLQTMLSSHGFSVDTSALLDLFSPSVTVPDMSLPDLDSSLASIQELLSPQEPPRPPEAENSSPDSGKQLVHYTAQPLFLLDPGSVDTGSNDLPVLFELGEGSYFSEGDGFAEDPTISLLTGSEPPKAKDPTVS
Test: pull-down; GST or GST-hHSF1 on glutathione-agarose beads incubated with purified His-Arc in 20 mM MOPS pH 7.2, 100 mM KCl, 0.5% Tween, 2 μg/mL aprotinin, 3 h at 4°C; Western analysis with anti-GST and anti-Arc; with and without heat shock treatment
Settings: both partners purified

- binding result: binds
B1: His-tagged human Arc/Arg3.1 (natural protein, UniProt Q7LC44 1-396, looked up)
chain: MELDHRTSGGLHAYPGPRGGQVAKPNVILQIGKCRAEMLEHVRRTHRHLLAEVSKQVERELKGLHRSVGKLESNLDGYVPTSDSQRWKKSIKACLCRCQETIANLERWVKREMHVWREVFYRLERWADRLESTGGKYPVGSESARHTVSVGVGGPESYCHEADGYDYTVSPYAITPPPAAGELPGQEPAEAQQYQPWVPGEDGQPSPGVDTQIFEDPREFLSHLEEYLRQVGGSEEYWLSQIQNHMNGPAKKWWEFKQGSVKNWVEFKKEFLQYSEGTLSREAIQRELDLPQKQGEPLDQFLWRKRDLYQTLYVDADEEEIIQYVVGTLQPKLKRFLRHPLPKTLEQLIQRGMEVQDDLEQAAEPAGPHLPVEDEAETLTPAPNSESVASDRTQPE
notes: Arc/Arg3.1 (activity-regulated cytoskeleton-associated protein), human (hArc/Arg3.1); The construct and its purification are not described in the methods; also called His-Arc; His-Arc/Arg3.1; source: purified

— PMC6385231, “Activity-Regulated Cytoskeleton-Associated Protein (Arc/Arg3.1) is Transiently Expressed after Heat Shock Stress and Suppresses Heat Shock Factor 1” (Scientific Reports, 2019)
